# Source: the supplement of paper PMC7877785
# ± gives the uncertainty stated by the source.
# Assay: self-splicing fitness, log relative to wild type (ln ratio); higher = more splicing; Tetrahymena group I intron in knt gene, E. coli kanamycin selection, DiMSum; sequences stand for … in CUCUCU…GGAGGGAAAAGUUAUCAGGCAUGCACCUGGUAGCUAGUCUUUAAACCAAUAGAUUGCAUCGGUUUAAAAGGCAAGACCGUCAAAUUGCGGGAAAGGGGUCAACAGCCGUUCAGUACCAAGUCUCAGGGGAAACUUUGAGAUGGCCUUGCAAAGGGUAUGGUAAUAAGCUGACGGACAUGGUCCUAACCACGCAGCCAAGUCCUAAGUCAACAGAUCUUCUGUUGAUAUGGAUGCAGUUCACAGACUAAAUGUCGGUCGGGGAAGAUGUAUUCUUCUCAUAAGAUAUAGUCGGACCUCUCCUUAAUGGGAGCUAGCGGAUGAAGUGAUGCAACACUGGAGCCGCUGGGAACUAAUUUGUAUGCGAAAGUAUAUUGAUUAGUUUUGGAGUACUCGUGGUCG
# How it was run: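 Pooled colonies went to amplicon sequencing on an Illumina HiSeq 2500 after six replicate transformations. The plates were LB agar with 100 μg/mL carbenicillin, 50 μM IPTG and 0.2% rhamnose, with or without 25 μg/mL kanamycin, incubated overnight at 37°C or 30°C. The E. coli BL21(DE3) library had all eight P1ex-region intron nucleotides randomised, the intron placed in the knt kanamycin-resistance gene on pET-22b(+). DiMSum fitness is the error-weighted combination of replicate fold changes, kanamycin against none, normalised to wild type.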
Sequence,self-splicing fitness (ln) (30 °C),self-splicing fitness (ln) (37 °C)
CAUAAGCAAUAUUACGUAUC,-2.78 ± 0.2,-2.72 ± 0.25
CAUCAGCAAUAUUACGAAGU,-3.41 ± 0.18,-1.52 ± 0.14
CAUCAGCAAUAUUACGCCGA,-2.57 ± 0.32,-1.79 ± 0.31
CAUCAGCAAUAUUACGCUAC,-3.62 ± 0.27,-3.33 ± 0.46
CAUCAGCAAUAUUACGCUCU,-3.31 ± 0.19,-1.66 ± 0.17
CAUCAGCAAUAUUACGCUUA,-1.77 ± 0.13,-0.562 ± 0.11
CAUCAGCAAUAUUACGCUUC,-2.2 ± 0.18,-0.251 ± 0.12
CAUCAGCAAUAUUACGGAAU,-2.46 ± 0.12,-2.11 ± 0.11
CAUCAGCAAUAUUACGGACU,-3.78 ± 0.22,-0.896 ± 0.13
CAUCAGCAAUAUUACGGAUG,-4 ± 0.14,-2.94 ± 0.14
CAUCAGCAAUAUUACGGCAG,-0.68 ± 0.076,0.196 ± 0.09
CAUCAGCAAUAUUACGGGUG,-3.28 ± 0.14,-2.71 ± 0.2
CAUCAGCAAUAUUACGGUCC,-1.37 ± 0.2,-0.885 ± 0.29
CAUCAGCAAUAUUACGGUGC,-3.55 ± 0.43,-3.74 ± 0.46
CAUCAGCAAUAUUACGGUGU,-4.64 ± 0.27,-1.77 ± 0.12
CAUCAGCAAUAUUACGUCGA,-3 ± 0.21,-2.66 ± 0.24
CAUGAGCAAUAUUACGAAAG,-1.36 ± 0.11,-1.18 ± 0.14
CAUGAGCAAUAUUACGAACG,-0.482 ± 0.082,-0.421 ± 0.088
CAUGAGCAAUAUUACGAAGC,–,-0.241 ± 0.49
CAUGAGCAAUAUUACGAGAC,-3.32 ± 0.32,-1.35 ± 0.3
CAUGAGCAAUAUUACGAGGG,-3.79 ± 0.22,-1.03 ± 0.14
CAUGAGCAAUAUUACGAGUA,-2.36 ± 0.21,-1.12 ± 0.24
CAUGAGCAAUAUUACGCGAU,-1.87 ± 0.18,-1.61 ± 0.32
CAUGAGCAAUAUUACGCGGA,-2.6 ± 0.2,-1.64 ± 0.17
CAUGAGCAAUAUUACGCGUU,-4.13 ± 0.42,-2.35 ± 0.26

Sequence,self-splicing fitness (ln) (30 °C),self-splicing fitness (ln) (37 °C)
CAUGAGCAAUAUUACGCUUU,–,-3.02 ± 0.24
CAUGAGCAAUAUUACGGAGC,-3.21 ± 0.25,-3.46 ± 0.35
CAUGAGCAAUAUUACGGCCC,-2.29 ± 0.29,–
CAUGAGCAAUAUUACGGCCG,-1.25 ± 0.12,-0.62 ± 0.16
CAUGAGCAAUAUUACGGCGC,-3.56 ± 0.25,-4.32 ± 0.36
CAUGAGCAAUAUUACGGGAU,-3.49 ± 0.3,–
CAUGAGCAAUAUUACGUACG,-0.969 ± 0.074,0.257 ± 0.1
CAUGAGCAAUAUUACGUAGG,-1.82 ± 0.08,-1.46 ± 0.093
CAUGAGCAAUAUUACGUCGC,-3.59 ± 0.29,-2.13 ± 0.42
CAUGAGCAAUAUUACGUGGC,-3.55 ± 0.25,-2.46 ± 0.24
CAUGAGCAAUAUUACGUUAG,-1.86 ± 0.081,-1.11 ± 0.082
CAUUAGCAAUAUUACGACUG,-0.158 ± 0.079,0.262 ± 0.092
CAUUAGCAAUAUUACGCAAG,-1.45 ± 0.1,-0.813 ± 0.13
CAUUAGCAAUAUUACGCAUG,-4.08 ± 0.46,-3.16 ± 0.4
CAUUAGCAAUAUUACGCGCC,-3.41 ± 0.32,-2.26 ± 0.35
CAUUAGCAAUAUUACGCGGA,-2.93 ± 0.23,-1 ± 0.14
CAUUAGCAAUAUUACGCUAC,-3.99 ± 0.4,-2.13 ± 0.46
CAUUAGCAAUAUUACGGAGC,-2.94 ± 0.4,-2.04 ± 0.23
CAUUAGCAAUAUUACGGAUU,-3.12 ± 0.2,-1.23 ± 0.21
CAUUAGCAAUAUUACGGGGG,-2.52 ± 0.21,-1.19 ± 0.15
CAUUAGCAAUAUUACGGGUU,-2.27 ± 0.11,-0.829 ± 0.12
CAUUAGCAAUAUUACGGUGU,-3.92 ± 0.2,-3.76 ± 0.23
CAUUAGCAAUAUUACGGUUA,-2.35 ± 0.28,-0.486 ± 0.17
CAUUAGCAAUAUUACGUAGA,-0.475 ± 0.11,-1.51 ± 0.2
